PMC2810336, “Mutational Analysis of Highly Conserved Residues in the Phage PhiC31 Integrase Reveals Key Amino Acids Necessary for the DNA Recombination”

Target: T1, phiC31 integrase C374A (Streptomyces phage phiC31, UniProt Q38194 1-613, C374A)
T1 sequence: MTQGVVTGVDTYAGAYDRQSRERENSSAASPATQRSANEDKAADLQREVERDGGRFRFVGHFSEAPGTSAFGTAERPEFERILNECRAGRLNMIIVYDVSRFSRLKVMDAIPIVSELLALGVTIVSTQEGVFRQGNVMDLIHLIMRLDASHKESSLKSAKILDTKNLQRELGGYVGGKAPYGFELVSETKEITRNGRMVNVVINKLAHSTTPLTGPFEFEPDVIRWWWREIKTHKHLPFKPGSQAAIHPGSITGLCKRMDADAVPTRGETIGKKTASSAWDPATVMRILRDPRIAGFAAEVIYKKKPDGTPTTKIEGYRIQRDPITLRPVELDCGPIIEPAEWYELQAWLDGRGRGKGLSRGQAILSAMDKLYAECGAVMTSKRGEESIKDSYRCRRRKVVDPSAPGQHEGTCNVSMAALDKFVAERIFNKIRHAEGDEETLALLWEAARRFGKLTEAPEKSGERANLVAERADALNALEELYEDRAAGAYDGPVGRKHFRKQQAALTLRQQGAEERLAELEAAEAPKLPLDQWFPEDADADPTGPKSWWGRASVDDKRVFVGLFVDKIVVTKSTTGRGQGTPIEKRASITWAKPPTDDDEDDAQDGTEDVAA
Experiment: EMSA; 400 nM protein; 50 ng/ul Poly (competitor (so in the source)), 0.05% NP-40, 50 mM KCl, 5 mM MgCl2, 10 mM EDTA, 20 ul, 0.4 ng (16 fmol) probe; 30 min at room temperature (Methods) or 30 C; pH not stated; synapsis 2 h at 30 C
Conditions: protein: recombinant; tags: C-terminal His; chain copies: 2; label: biotin, double-strand end-labeled; blunt

B1: attB 41 bp (dsDNA)
DNA 1: CGGGTGCCAGGGCGTGCCCTTGGGCTCCCCGGGCGCGTACT
DNA 2: AGTACGCGCCCGGGGAGCCCAAGGGCACGCCCTGGCACCCG
**Q.** B1 was tested. Which binding signal did it give?
**A.** 0 % of WT
